Here are results for four substances from patent US20130252282A1.

Experiment [1] deals with Cdc42 (UniProt P60766). The experiment in a line: cell-based or functional assay.
For experiment [2], the target named is Dronpa145N (Pectimidae genus coral). In words: inferred from native PAGE of 100 µM protein after cyan (about 500 nm) illumination; self-association, off-photoswitched state.

Some results are limits rather than exact numbers.

Sequence of UniProt P60766 (P60766 1-188 limits assumed): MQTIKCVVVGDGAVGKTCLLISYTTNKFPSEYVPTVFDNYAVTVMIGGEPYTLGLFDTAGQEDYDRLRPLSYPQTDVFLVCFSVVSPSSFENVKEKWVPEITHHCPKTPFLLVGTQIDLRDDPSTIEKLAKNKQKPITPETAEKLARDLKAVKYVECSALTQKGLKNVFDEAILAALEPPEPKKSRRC

Consider “N-I-N-CAAX (Dronpa145N-intersectin DH domain-Dronpa145N-CAAX) (from UniProt Q15811 1234-1428) (enzyme)”, for which, in experiment [1], the cells forming abundant filopodia within 30 minutes after 490/20-nm light for 30 seconds worked out at 78% and the cells forming filopodia in the same time interval without illumination amounted to 10%.

In experiment [1], “K-I-N-CAAX (Dronpa145K-intersectin DH domain-Dronpa145N-CAAX) (from UniProt Q15811 1234-1428) (enzyme)” returned a basal filopodia or lamellipodia in low expressers of 8%; a cells forming abundant filopodia within 30 minutes after illumination of 90%; a cells forming filopodia, not exposed to light of 25%.

Consider “N-I-N-CAAX (Dronpa145N-intersectin DH domain-Dronpa145N-CAAX) (from UniProt Q15811 1234-1428)”, for which the basal filopodia or lamellipodia in low expressers in experiment [1] worked out at 0%.

In the case of Dronpa145N, the Kd in experiment [2] is more than 100 µM.

As a reminder, the Kd is the equilibrium constant for the complex coming apart.
